# Results taken from article PMC3778016, “Tracking of Chromosome and Replisome Dynamics in Myxococcus xanthus Reveals a Novel Chromosome Arrangement”.
# T1: His6-ParB (Myxococcus xanthus DK1622, UniProt Q1CVJ4 1-296)
# T1 sequence: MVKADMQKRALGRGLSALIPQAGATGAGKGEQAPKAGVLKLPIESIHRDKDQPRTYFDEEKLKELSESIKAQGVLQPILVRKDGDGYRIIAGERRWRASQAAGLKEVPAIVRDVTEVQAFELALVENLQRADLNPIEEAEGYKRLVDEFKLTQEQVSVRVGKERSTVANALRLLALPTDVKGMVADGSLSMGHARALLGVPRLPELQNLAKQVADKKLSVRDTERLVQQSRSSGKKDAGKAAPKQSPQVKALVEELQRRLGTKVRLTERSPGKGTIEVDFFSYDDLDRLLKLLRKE
# B1: HEX-parSmut (dsDNA)
# DNA 1: GAGGCTTGCCCCACGTGGAACGTCGG
# DNA 2: CCGACGTTCCACGTGGGGCAAGCCTC
# B2: HEX-parS consensus (dsDNA)
# DNA 1: GAGGCTTGTTCCACGTGGAACGTCGG
# DNA 2: CCGACGTTCCACGTGGAACAAGCCTC
# Key:
# His6-ParB [1] = molecular target: T1, His6-ParB; assay: EMSA; 100 nM DNA, 0.1-6 uM His6-ParB, 5 uM pBluescript II SK- competitor, 5 mM Mg2+; 38 mM Hepes/NaOH pH 7.2, 38 mM NaCl, 5 mM MgCl2, 7% glycerol, 1 mM beta-mercaptoethanol, 20 min at 30 C; 6% PAGE at 4 C in 1xTBE + 5 mM MgCl2; settings: protein: recombinant; tags: N-terminal His6 (pET45b+); chain copies: 2; blunt
# His6-ParB [2] = molecular target: T1, His6-ParB; assay: as above; settings: protein: recombinant; tags: N-terminal His6 (pET45b+); chain copies: 2; blunt; remark: listed apart in the source
Binder,binding signal (His6-ParB [1]),binding result (His6-ParB [2])
B1,~10 fold reduced affinity vs N1,–
B2,–,binds
